T1: human BCMA on myeloma cells (H929, U266, patient bone marrow myeloma plasma cells) (human, UniProt Q02223 1-184)
T1 sequence (looked up): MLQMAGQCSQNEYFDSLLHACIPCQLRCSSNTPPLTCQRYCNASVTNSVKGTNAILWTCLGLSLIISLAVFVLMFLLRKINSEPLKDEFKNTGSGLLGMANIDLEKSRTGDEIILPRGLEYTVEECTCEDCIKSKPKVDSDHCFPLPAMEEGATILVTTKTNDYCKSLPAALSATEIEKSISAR


Assays:
[1] = target: T1, human BCMA on myeloma cells (H929, …); assay: cell-based or functional assay
[2] = target: T1, human BCMA on myeloma cells (H929, …); assay: cell-based or functional assay; remark: listed apart in the source

Binder | EC50 (pM) for redirected T-cell killing of H929 cells (LDH release) [1] [pM] | EC50 (µg/ml) for redirected T-cell killing of H929 cells (LDH release) [1] [µg/mL] | EC50 (pM) for redirected T-cell killing of H929 cells (LDH release), Experiment 1 [1] [pM] | EC50 (pM) for redirected T-cell killing of H929 cells (LDH release), Experiment 2 [1] [pM] | EC50 (µg/ml) for redirected T-cell killing of H929 cells (LDH release), Experiment 1 [1] [µg/mL] | EC50 (µg/ml) for redirected T-cell killing of H929 cells (LDH release), Experiment 2 [1] [µg/mL] | EC50 (pM) for redirected T-cell killing of U266 cells (LDH release) [2] [pM] | EC50 (µg/ml) for redirected T-cell killing of U266 cells (LDH release) [2] [µg/mL]
pSCHLI333-TCB CLC (bispecific antibody) heavy 1: not shown heavy 2: QVQLVQSGAEVKKPGASVKVSCKASGYMFSSFGMSWVRQAPGQGLEWMGWIYPVGQGTWYAQKFQGRVTMTRDTSTSTVYMELSSLRSEDTAVYYCARVSYPPSHFDYWGQGTLVTVSSASTKGPSVFPLAPSSKSTSGGTAALGCLVKDYFPEPVTVSWNSGALTSGVHTFPAVLQSSGLYSLSSVVTVPSSSLGTQTYICNVNHKPSNTKVDKKVEPKSCDKTHTCPPCPAPEAAGGPSVFLFPPKPKDTLMISRTPEVTCVVVDVSHEDPEVKFNWYVDGVEVHNAKTKPREEQYNSTYRVVSVLTVLHQDWLNGKEYKCKVSNKALGAPIEKTISKAKGQPREPQVCTLPPSRDELTKNQVSLSCAVKGFYPSDIAVEWESNGQPENNYKTTPPVLDSDGSFFLVSKLTVDKSRWQQGNVFSCSVMHEALHNHYTQKSLSLSPGK light: QAVVTQEPSLTVSPGGTVTLTCGSSTGAVTTSNYANWVQEKPGQAFRGLIGGTNKRAPGTPARFSGSLLGGKAALTLSGAQPEDEAEYYCALWYSNLWVFGGGTKLTVLGQPKAAPSVTLFPPSSEELQANKATLVCLISDFYPGAVTVAWKADSSPVKAGVETTTPSKQSNNKYAASSYLSLTPEQWKSHRSYSCQVTHEGSTVEKTVAPTECS | 980 | 0.19 |  |  |  |  |  | 
pSCHLI372-TCB CLC (bispecific antibody) heavy 1: not shown heavy 2: EVQLVESGGGLVKPGGSLRLSCAASGFTFSNSGMIWVRQAPGKGLEWVGHIRSKTDGGTTDYAAPVKGRFTISRDDSKNTLYLQMNSLKTEDTAVYYCTTGGSGSFDYWGQGTLVTVSSASTKGPSVFPLAPSSKSTSGGTAALGCLVKDYFPEPVTVSWNSGALTSGVHTFPAVLQSSGLYSLSSVVTVPSSSLGTQTYICNVNHKPSNTKVDKKVEPKSCDKTHTCPPCPAPEAAGGPSVFLFPPKPKDTLMISRTPEVTCVVVDVSHEDPEVKFNWYVDGVEVHNAKTKPREEQYNSTYRVVSVLTVLHQDWLNGKEYKCKVSNKALGAPIEKTISKAKGQPREPQVCTLPPSRDELTKNQVSLSCAVKGFYPSDIAVEWESNGQPENNYKTTPPVLDSDGSFFLVSKLTVDKSRWQQGNVFSCSVMHEALHNHYTQKSLSLSPGK light: QAVVTQEPSLTVSPGGTVTLTCGSSTGAVTTSNYANWVQEKPGQAFRGLIGGTNKRAPGTPARFSGSLLGGKAALTLSGAQPEDEAEYYCALWYSNLWVFGGGTKLTVLGQPKAAPSVTLFPPSSEELQANKATLVCLISDFYPGAVTVAWKADSSPVKAGVETTTPSKQSNNKYAASSYLSLTPEQWKSHRSYSCQVTHEGSTVEKTVAPTECS |  |  | 450 | 900 | 0.08 | 0.17 | 5700 | 1.1
